Reference: publication PMC6511868

Assays:
[1] = biological target: uL23 as bait of the co-IP of Figure 1C (tag not told) (UniProt P04456); experiment: co-immunoprecipitation, western blot quantification; conditions: parent: 100
uS3-GFP (S. cerevisiae) = uS3-GFP (S. cerevisiae) (UniProt P05750); experiment: co-IP; yeast lysates; GFP-Trap_A beads (GFP-tagged baits) or IgG-Sepharose (TAP-tagged baits), 3 h at 4°C, western blot; wild type and the strains sup45-2, rat8-2, rat7ΔN shifted to 37°C for 1 h; also 0.5 mg/ml cycloheximide for 30 min; also high copy RLI1
Chain of UniProt P05750 (P05750 whole entry): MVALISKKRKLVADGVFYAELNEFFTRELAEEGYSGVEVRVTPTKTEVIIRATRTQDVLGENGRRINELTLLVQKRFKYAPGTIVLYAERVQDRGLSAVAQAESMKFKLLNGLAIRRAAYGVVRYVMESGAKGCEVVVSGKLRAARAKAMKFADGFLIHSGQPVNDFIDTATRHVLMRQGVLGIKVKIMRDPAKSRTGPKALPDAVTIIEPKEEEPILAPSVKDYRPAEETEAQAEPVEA

Chain of UniProt P04456 (P04456 whole entry): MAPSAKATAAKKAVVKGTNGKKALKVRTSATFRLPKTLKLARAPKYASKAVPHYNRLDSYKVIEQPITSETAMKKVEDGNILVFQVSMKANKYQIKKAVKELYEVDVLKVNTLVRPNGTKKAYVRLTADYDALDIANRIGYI

Substance | percent of parent [1] | co-precipitation relative to wild-type eRF1 (uS3-GFP (S. cerevisiae)) | co-precipitation relative to wild-type eRF1, with high copy RLI1 (uS3-GFP (S. cerevisiae))
eukaryotic release factor 1 (eRF1) (from UniProt P12385) sup45-2 | 46% | – | –
mutated eRF1 protein sup45-2 (from UniProt P12385 1-437) (natural protein) | – | 0.25 of wild type | > 60%
